Results taken from publication PMC8354592.

Target: GST-GNL1 (UniProt P36915 1-607)
Assay: EMSA

Chain of GST-GNL1 (P36915 whole entry): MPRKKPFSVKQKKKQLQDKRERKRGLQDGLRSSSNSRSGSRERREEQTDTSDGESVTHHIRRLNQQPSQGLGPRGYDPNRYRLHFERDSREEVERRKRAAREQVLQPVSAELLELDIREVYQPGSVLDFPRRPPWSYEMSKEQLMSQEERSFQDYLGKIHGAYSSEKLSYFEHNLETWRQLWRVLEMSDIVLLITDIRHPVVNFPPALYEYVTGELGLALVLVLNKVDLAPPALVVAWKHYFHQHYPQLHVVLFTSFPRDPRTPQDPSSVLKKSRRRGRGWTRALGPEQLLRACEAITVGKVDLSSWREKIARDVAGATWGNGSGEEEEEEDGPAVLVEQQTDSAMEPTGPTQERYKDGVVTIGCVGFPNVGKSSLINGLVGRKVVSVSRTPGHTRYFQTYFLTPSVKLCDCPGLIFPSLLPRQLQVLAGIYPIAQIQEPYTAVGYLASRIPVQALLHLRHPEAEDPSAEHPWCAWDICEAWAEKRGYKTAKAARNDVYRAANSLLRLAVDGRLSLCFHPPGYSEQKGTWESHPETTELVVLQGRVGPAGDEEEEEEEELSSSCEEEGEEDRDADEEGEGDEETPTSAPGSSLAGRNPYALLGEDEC

B1: PRKN G/A mutant (ssRNA)
RNA: GGAUUCCUAGGGCCGAGCGCGAGAGCGAGAAGGCCUGAAGGAUUUAACCCAGAAGAGCCGCUGGUGAGAGGCGCGGCUGGCGCCGCUGCGCGC
For B1, the Kd was 7.34 µM.
